This passage reports stoichiometry N results from paper PMC10538476.

Broadly, the stoichiometry N is the number of molecules, sites or subunits per partner or assembly.

This assay deals with Human macrophage galactose-type lectin (MGL) isoform 2 extracellular domain (human). The assay is described as follows: SAXS; MGL-ECD at 1 mg/mL in 25 mM Tris pH 8, 150 mM NaCl, 4 mM CaCl2, 25°C; ESRF BM29 beamline; oligomeric state from the estimated molecular weight.

Regarding “Human macrophage galactose-type lectin (MGL) isoform 2 extracellular domain (domain or fragment)”, the stoichiometry N was 3.
